Laboratory results published in US20250361312A1 (INVOX PHARMA, published 2025).

T1: human TNFRI (human, UniProt P19438 30-211, limits assumed)
T1 construct: Amine-coupled to a CM5 chip
T1 sequence (looked up): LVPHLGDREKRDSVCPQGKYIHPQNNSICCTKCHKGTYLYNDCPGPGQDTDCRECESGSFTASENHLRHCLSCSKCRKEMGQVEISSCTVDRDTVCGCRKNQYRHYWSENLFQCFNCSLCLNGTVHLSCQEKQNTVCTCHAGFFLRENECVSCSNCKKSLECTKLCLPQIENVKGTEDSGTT

T2: human TNFRII (human, UniProt P20333 23-257, limits assumed)
T2 construct: Amine-coupled to a CM5 chip
T2 sequence (looked up): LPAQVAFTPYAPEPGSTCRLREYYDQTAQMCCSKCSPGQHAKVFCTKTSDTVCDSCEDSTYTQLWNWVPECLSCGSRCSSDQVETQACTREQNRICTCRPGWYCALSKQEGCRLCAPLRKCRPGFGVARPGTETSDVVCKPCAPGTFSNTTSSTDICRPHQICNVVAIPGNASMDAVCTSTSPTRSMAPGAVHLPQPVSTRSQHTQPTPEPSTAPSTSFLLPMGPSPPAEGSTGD

T3: human NGFR (human, UniProt P08138 29-250, limits assumed)
T3 construct: Amine-coupled to a CM5 chip
T3 sequence (looked up): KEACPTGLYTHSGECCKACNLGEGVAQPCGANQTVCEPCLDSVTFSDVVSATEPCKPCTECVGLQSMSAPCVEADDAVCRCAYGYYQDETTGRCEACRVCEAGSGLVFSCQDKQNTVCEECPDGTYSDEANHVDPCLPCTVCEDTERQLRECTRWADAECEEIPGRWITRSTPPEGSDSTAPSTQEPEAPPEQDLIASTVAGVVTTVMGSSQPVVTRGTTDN


What was measured:
Assay in all cases: SPR (Biacore T200), receptor on CM5 chip
human CD137 = target: T4, human CD137 (human, UniProt Q07011 24-186, limits assumed)
T4 construct: Amine-coupled to a CM5 chip; also called 4-1BB

human TNFRI = target: T1, human TNFRI
human TNFRII = target: T2, human TNFRII
human CD40 = target: T5, human CD40 (human, UniProt P25942 21-193, limits assumed)
T5 construct: Amine-coupled to a CM5 chip
T5 sequence (P25942 21-193 limits assumed): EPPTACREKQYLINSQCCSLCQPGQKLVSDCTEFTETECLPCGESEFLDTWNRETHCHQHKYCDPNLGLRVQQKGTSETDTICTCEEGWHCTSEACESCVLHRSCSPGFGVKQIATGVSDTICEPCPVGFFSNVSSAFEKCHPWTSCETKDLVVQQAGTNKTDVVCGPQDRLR

human NGFR = target: T3, human NGFR

Binder | binding result (human CD137) | binding result (human TNFRI) | binding result (human TNFRII) | binding result (human CD40) | binding result (human NGFR)
FS20-11-134AA/4420 (bispecific antibody, human IgG1, kappa, L234A L235A, Human IgG1 with anti-FITC 4420 Fab and LALA; The OX40 site is in the CH3 domain; also called FS20-11-134 Fcab in mock (4420 LALA) mAb^2 format) heavy: EVKLDETGGGLVQPGRPMKLSCVASGFTFSDYWMNWVRQSPEKGLEWVAQIRNKPYNYETYYSDSVKGRFTISRDDSKSSVYLQMNNLRVEDMGIYYCTGSYYGMDYWGQGTSVTVSSASTKGPSVFPLAPSSKSTSGGTAALGCLVKDYFPEPVTVSWNSGALTSGVHTFPAVLQSSGLYSLSSVVTVPSSSLGTQTYICNVNHKPSNTKVDKKVEPKSCDKTHTCPPCPAPEAAGGPSVFLFPPKPKDTLMISRTPEVTCVVVDVSHEDPEVKFNWYVDGVEVHNAKTKPREEQYNSTYRVVSVLTVLHQDWLNGKEYKCKVSNKALPAPIEKTISKAKGQPREPQVYTLPPSREEDDNDVSLTCLVKGFYPSDIAVEWESNGIPIGPYKTTPPVLDSDGSFFLYSKLTVDKSRWWKHYVEEHPFLCSVMHEALHNHYTQKSLSLSPG light: DVVMTQTPLSLPVSLGDQASISCRSSQSLVHSNGNTYLRWYLQKPGQSPKVLIYKVSNRFSGVPDRFSGSGSGTDFTLKISRVEAEDLGVYFCSQSTHVPWTFGGGTKLEIKRTVAAPSVFIFPPSDEQLKSGTASVVCLLNNFYPREAKVQWKVDNALQSGNSQESVTEQDSKDSTYSLSSTLTLSKADYEKHKVYACEVTHQGLSSPVTKSFNRGEC | no binding (tested: 1 µM) | no binding (tested: 1 µM) | no binding (tested: 1 µM) | no binding (tested: 1 µM) | no binding (tested: 1 µM)
FS20-22-41AA/4420 (bispecific antibody, human IgG1, kappa, L234A L235A, Human IgG1 with anti-FITC 4420 Fab and LALA; The OX40 site is in the CH3 domain; also called FS20-22-41 Fcab in mock (4420 LALA) mAb^2 format) heavy: EVKLDETGGGLVQPGRPMKLSCVASGFTFSDYWMNWVRQSPEKGLEWVAQIRNKPYNYETYYSDSVKGRFTISRDDSKSSVYLQMNNLRVEDMGIYYCTGSYYGMDYWGQGTSVTVSSASTKGPSVFPLAPSSKSTSGGTAALGCLVKDYFPEPVTVSWNSGALTSGVHTFPAVLQSSGLYSLSSVVTVPSSSLGTQTYICNVNHKPSNTKVDKKVEPKSCDKTHTCPPCPAPEAAGGPSVFLFPPKPKDTLMISRTPEVTCVVVDVSHEDPEVKFNWYVDGVEVHNAKTKPREEQYNSTYRVVSVLTVLHQDWLNGKEYKCKVSNKALPAPIEKTISKAKGQPREPQVYTLPPSRDEYWDQEVSLTCLVKGFYPSDIAVEWESNGDEQFAYKTTPPVLDSDGSFFLYSKLTVDQYRWNPGDYFSCSVMHEALHNHYTQKSLSLSPG light: DVVMTQTPLSLPVSLGDQASISCRSSQSLVHSNGNTYLRWYLQKPGQSPKVLIYKVSNRFSGVPDRFSGSGSGTDFTLKISRVEAEDLGVYFCSQSTHVPWTFGGGTKLEIKRTVAAPSVFIFPPSDEQLKSGTASVVCLLNNFYPREAKVQWKVDNALQSGNSQESVTEQDSKDSTYSLSSTLTLSKADYEKHKVYACEVTHQGLSSPVTKSFNRGEC | no binding (tested: 1 µM) | no binding (tested: 1 µM) | no binding (tested: 1 µM) | no binding (tested: 1 µM) | no binding (tested: 1 µM)
FS20-22-38AA/4420 (bispecific antibody, human IgG1, kappa, L234A L235A, Human IgG1 with anti-FITC 4420 Fab and LALA; The OX40 site is in the CH3 domain; also called FS20-22-38 Fcab in mock (4420 LALA) mAb^2 format) heavy: EVKLDETGGGLVQPGRPMKLSCVASGFTFSDYWMNWVRQSPEKGLEWVAQIRNKPYNYETYYSDSVKGRFTISRDDSKSSVYLQMNNLRVEDMGIYYCTGSYYGMDYWGQGTSVTVSSASTKGPSVFPLAPSSKSTSGGTAALGCLVKDYFPEPVTVSWNSGALTSGVHTFPAVLQSSGLYSLSSVVTVPSSSLGTQTYICNVNHKPSNTKVDKKVEPKSCDKTHTCPPCPAPEAAGGPSVFLFPPKPKDTLMISRTPEVTCVVVDVSHEDPEVKFNWYVDGVEVHNAKTKPREEQYNSTYRVVSVLTVLHQDWLNGKEYKCKVSNKALPAPIEKTISKAKGQPREPQVYTLPPSRDEYWDQEVSLTCLVKGFYPSDIAVEWESNGAEKYQYKTTPPVLDSDGSFFLYSKLTVDQYRWNPGDYFSCSVMHEALHNHYTQKSLSLSPG light: DVVMTQTPLSLPVSLGDQASISCRSSQSLVHSNGNTYLRWYLQKPGQSPKVLIYKVSNRFSGVPDRFSGSGSGTDFTLKISRVEAEDLGVYFCSQSTHVPWTFGGGTKLEIKRTVAAPSVFIFPPSDEQLKSGTASVVCLLNNFYPREAKVQWKVDNALQSGNSQESVTEQDSKDSTYSLSSTLTLSKADYEKHKVYACEVTHQGLSSPVTKSFNRGEC | no binding (tested: 1 µM) | no binding (tested: 1 µM) | no binding (tested: 1 µM) | no binding (tested: 1 µM) | no binding (tested: 1 µM)
FS20-22-47AA/4420 (bispecific antibody, human IgG1, kappa, L234A L235A, Human IgG1 with anti-FITC 4420 Fab and LALA; The OX40 site is in the CH3 domain; also called FS20-22-47 Fcab in mock (4420 LALA) mAb^2 format) heavy: EVKLDETGGGLVQPGRPMKLSCVASGFTFSDYWMNWVRQSPEKGLEWVAQIRNKPYNYETYYSDSVKGRFTISRDDSKSSVYLQMNNLRVEDMGIYYCTGSYYGMDYWGQGTSVTVSSASTKGPSVFPLAPSSKSTSGGTAALGCLVKDYFPEPVTVSWNSGALTSGVHTFPAVLQSSGLYSLSSVVTVPSSSLGTQTYICNVNHKPSNTKVDKKVEPKSCDKTHTCPPCPAPEAAGGPSVFLFPPKPKDTLMISRTPEVTCVVVDVSHEDPEVKFNWYVDGVEVHNAKTKPREEQYNSTYRVVSVLTVLHQDWLNGKEYKCKVSNKALPAPIEKTISKAKGQPREPQVYTLPPSRDEYWDQEVSLTCLVKGFYPSDIAVEWESNGDEQFAYKTTPPVLDSDGSFFLYSKLTVDQYRWSPGDYFSCSVMHEALHNHYTQKSLSLSPG light: DVVMTQTPLSLPVSLGDQASISCRSSQSLVHSNGNTYLRWYLQKPGQSPKVLIYKVSNRFSGVPDRFSGSGSGTDFTLKISRVEAEDLGVYFCSQSTHVPWTFGGGTKLEIKRTVAAPSVFIFPPSDEQLKSGTASVVCLLNNFYPREAKVQWKVDNALQSGNSQESVTEQDSKDSTYSLSSTLTLSKADYEKHKVYACEVTHQGLSSPVTKSFNRGEC | no binding (tested: 1 µM) | no binding (tested: 1 µM) | no binding (tested: 1 µM) | no binding (tested: 1 µM) | no binding (tested: 1 µM)

Further lines, results first:

binding result (human CD137) | binding result (human TNFRI) | binding result (human TNFRII) | binding result (human CD40) | binding result (human NGFR) | Binder
no binding (tested: 1 µM) | no binding (tested: 1 µM) | no binding (tested: 1 µM) | no binding (tested: 1 µM) | no binding (tested: 1 µM) | FS20-11-127AA/4420 (bispecific antibody, human IgG1, kappa, L234A L235A, Human IgG1 with anti-FITC 4420 Fab and LALA; The OX40 site is in the CH3 domain) heavy: EVKLDETGGGLVQPGRPMKLSCVASGFTFSDYWMNWVRQSPEKGLEWVAQIRNKPYNYETYYSDSVKGRFTISRDDSKSSVYLQMNNLRVEDMGIYYCTGSYYGMDYWGQGTSVTVSSASTKGPSVFPLAPSSKSTSGGTAALGCLVKDYFPEPVTVSWNSGALTSGVHTFPAVLQSSGLYSLSSVVTVPSSSLGTQTYICNVNHKPSNTKVDKKVEPKSCDKTHTCPPCPAPEAAGGPSVFLFPPKPKDTLMISRTPEVTCVVVDVSHEDPEVKFNWYVDGVEVHNAKTKPREEQYNSTYRVVSVLTVLHQDWLNGKEYKCKVSNKALPAPIEKTISKAKGQPREPQVYTLPPSREEDDNDVSLTCLVKGFYPSDIAVEWESNGIPIGPYKTTPPVLDSDGSFFLYSKLTVDKSRWWRHYVEEHPFLCSVMHEALHNHYTQKSLSLSPG light: DVVMTQTPLSLPVSLGDQASISCRSSQSLVHSNGNTYLRWYLQKPGQSPKVLIYKVSNRFSGVPDRFSGSGSGTDFTLKISRVEAEDLGVYFCSQSTHVPWTFGGGTKLEIKRTVAAPSVFIFPPSDEQLKSGTASVVCLLNNFYPREAKVQWKVDNALQSGNSQESVTEQDSKDSTYSLSSTLTLSKADYEKHKVYACEVTHQGLSSPVTKSFNRGEC
no binding (tested: 1 µM) | no binding (tested: 1 µM) | no binding (tested: 1 µM) | no binding (tested: 1 µM) | no binding (tested: 1 µM) | FS20-11-131AA/4420 (bispecific antibody, human IgG1, kappa, L234A L235A, Human IgG1 with anti-FITC 4420 Fab and LALA; The OX40 site is in the CH3 domain; also called FS20-11-131 Fcab in mock (4420 LALA) mAb^2 format) heavy: EVKLDETGGGLVQPGRPMKLSCVASGFTFSDYWMNWVRQSPEKGLEWVAQIRNKPYNYETYYSDSVKGRFTISRDDSKSSVYLQMNNLRVEDMGIYYCTGSYYGMDYWGQGTSVTVSSASTKGPSVFPLAPSSKSTSGGTAALGCLVKDYFPEPVTVSWNSGALTSGVHTFPAVLQSSGLYSLSSVVTVPSSSLGTQTYICNVNHKPSNTKVDKKVEPKSCDKTHTCPPCPAPEAAGGPSVFLFPPKPKDTLMISRTPEVTCVVVDVSHEDPEVKFNWYVDGVEVHNAKTKPREEQYNSTYRVVSVLTVLHQDWLNGKEYKCKVSNKALPAPIEKTISKAKGQPREPQVYTLPPSREEDDNDVSLTCLVKGFYPSDIAVEWESNGIPIGPYKTTPPVLDSDGSFFLYSKLTVDKNRWWKHYVDEHPFLCSVMHEALHNHYTQKSLSLSPG light: DVVMTQTPLSLPVSLGDQASISCRSSQSLVHSNGNTYLRWYLQKPGQSPKVLIYKVSNRFSGVPDRFSGSGSGTDFTLKISRVEAEDLGVYFCSQSTHVPWTFGGGTKLEIKRTVAAPSVFIFPPSDEQLKSGTASVVCLLNNFYPREAKVQWKVDNALQSGNSQESVTEQDSKDSTYSLSSTLTLSKADYEKHKVYACEVTHQGLSSPVTKSFNRGEC
